We go through seven molecules from patent US20180265915A1, “TRANSCRIPTION FACTOR DECOYS” (priority 2008, published 2018).

Entries after “also recorded” stand apart in the source; their conditions may differ. {P} = phosphate

For data set [1], the system named is Staphylococcus aureus EMRSA 16. The data set is described as follows: Mouse sepsis model, tissue burden study. The class given is in vivo. As to the method:
The mouse sepsis study was performed by Euprotec (UK). Mice used in this study, male CD1 mice were supplied by Charles River (Margate UK) and were specific pathogen free (16-18 g at delivery). All mice weighed 22-25 g at the beginning of the experiment.
For the tissue burden study, animals were treated in groups of 8 mice per treatment group, therefore 48 in total for the study. 2×10 ml cultures of Staphylococcus aureus EMRSA 16 were prepared and placed on orbital shaker (220 rpm) overnight at 37° C. The following day, the Staphylococcus aureus EMRSA 16 cultures were removed from shaker, pelleted and washed twice before being resuspended in saline to an OD of 0.132 (1.5×10^8 cfu/ml). This stock solution of Staphylococcus aureus EMRSA 16 was then further diluted 1:1.5 in saline (1×10^8 cfu/ml) i.e. 2.0×10^7 bacteria per mouse. 48 mice were then infected with 0.2 ml of the 1.0×10^8/mL suspension. The number of Staphylococcus aureus EMRSA 16 bacteria per mL in the remainder of the suspensions after inoculation was also counted to confirm infection load. Mice were treated 1, 9 and 17 hours post infection with either compound or vehicle, though vancomycin was only administered after 1h. The treatments were as previously a mixture of TFD/DOTAP/Lysostaphin using a concentration of InM/kg TFD in a 5:1 molar ratio with DOTAP and 63 μg/kg Lysostaphin. After 25 hours post infection all animals were weighed and then euthanized. The kidneys were immediately removed and homogenised in ice cold sterile phosphate buffered saline+0.05% Tween 80. Organ homogenates were quantitatively cultured onto CLED agar and incubated at 37° C. for up to 3 days and colonies counted. The data from the culture burdens was analysed by the Kruskal-Wallis test using Stats Direct.

Data set [2] concerns E. coli. The data set is described as follows: FabB TFD growth assay with cerulenin in LB, polymixin co-transfectant. In kind it is cell-based, Escherichia coli. How it is done:
For example, a FabB decoy which targets the regulation of genes essential for fatty acid synthesis may be tested against suitable strain, e.g. E. coli grown in e.g. Luria-Bertani LB media (1% [w/v] Bacto-tryptone, 0.5% [w/v] Yeast extract, 1% [w/v] NaCl) in the presence of an antibiotic which acts on the process of fatty acid synthesis, e.g. Cerulenin.
The effect of TFDs on the growth of E. coli bacterial cultures was measured as described in Example 4.1 with a few modifications: the media used was LB; the co-transfectant used was 40 nM polymixin, rather than gramicidin; the media was also supplemented with 10 μg/ml Cerulenin (CER). CER is an antibiotic that acts on fatty acid synthesis.

The subject of data set [3] is K. pneumoniae. The data set is described as follows: KP_Sig TFD growth assay in vitro. The class given is cell-based, Klebsiella pneumoniae. As to conditions: PCR_TFD, transfected using a cell penetrating peptide. The source says:
Cells were transfected as described in Example 13, using a cell penetrating peptide. […] The two controls used were: untreated cells (K. pneumoniae) and a control TFD consisting of a scrambled sequence.

Data set [4] has as its system S. aureus. Put plainly: Growth of S. aureus transfected by electroporation under conditions of stress. In kind it is cell-based, Staphylococcus aureus. As to conditions: BHI or LB media with 30 mM KOH, vs mock-electroporation or unrelated sequence. As to the method: For example, stress response can be induced in a suitable strain e.g. S. aureus by growing in, e.g. LB media under conditions of stress, e.g. alkali conditions. For example LB media containing KOH, e.g. at 30 mM may be used. Untreated bacteria grow well in this media, due to the induction of the stress response by the alkali conditions, whereas those treated with the SA_sigB decoy, targeting the regulation of sigB which is a major part of the regulatory response to stress, grow poorly.
Decoy polynucleotides were transfected into S. aureus by electroporation. Bacterial cells were prepared by standard methods. Briefy, cells were grown to early exponential phase in LB media at 37° C. as defined as reaching an Absorbance of 0.3 at […]. The cells were chilled to 4° C. and harvested by low speed centrifugation and washed three times in a similar volume of sterile, ice-cold 10% (v/v) glycerol. Finally the cells were resuspended in a tenth of their original volume in 10% glycerol. […] 200 μl of cells were aliquoted into wells of a 96 well plate that was incubated at 37° C. with moderate shaking, growth was monitored by measuring absorbance.

The test system of data set [5] is EMRSA-16. The data set is described as follows: WalR_TFD in vitro growth and viable count assays on EMRSA-16. In kind it is cell-based, Staphylococcus aureus. As to conditions: for effect on growth of EMRSA-16 in vitro: 1 nM TFD, DOTAP, Lysostaphin, BHI. As to the method:
S. aureus EMRSA16 cultures were grown and maintained in BHI media (Becton Dickenson). Frozen stocks were prepared by mixing equal volumes of a culture in early exponential growth (OD of 0.3 at A600) with 50% glycerol and freezing at −80° C.
TFD-DOTAP complexes were formed by mixing 1 ug of TFD with 2 μg of DOTAP (Roche) and incubating at room temperature for 10 min on the bench. The TFD complex was then mixed with inoculated medium supplemented with 10 ng/ml Lysostaphin (Sigma; L9043), aliquoted into 96 well flat-bottomed plates and growth was analysed by culturing at 37° C. with shaking in a BioTek plate reader.
EMRSA-16, an MRSA strain endemic in UK hospitals, was used in the study (Cox, Mallaghan et al. 1995). TFDs were mixed with a commercially available lipid formulation, DOTAP, and mixed with media inoculated with EMRSA-16 and Lysostaphin. Lysostaphin is a lysozyme agent that acts on the walls of S. aureus, use of it in this experiment was to thin the outer peptidoglycan layer of the bacteria and allow the TFD to transfect the cell following fusion of the DOTAP carrier with the exposed inner membrane of the bacterium. […] The bacteria that were not killed by WalR_TFD treatment were sub-cultured in order to determine whether there was any incidence of resistance. The process was repeated a total of four times and both the reduction in viable counts (FIG. 17B) and in vitro growth curves were recorded (FIG. 17C, black squares: bacteria in fourth passage).
In order to determine whether TFDs killed bacteria on contact or needed prolonged exposure to work, EMRSA-16 were transfected with 1 nM WalR_TFD/DOTAP complex and incubated for 30 minutes before being microdiluted into fresh media, without any TFD complexes or Lysostaphin.

Data set [6] relates to EMRSA15. The data set is described as follows: DB-TFD growth assay on EMRSA15 with Lysostaphin co-treatment. In kind it is cell-based, Staphylococcus aureus. As to conditions: 10 nM DB-TFD; 0.5 to 2.5 pg/ml Lysostaphin. As to the method:
Growth assays were performed as described for Example 7.1 with the sole difference being that the media was supplemented with between 0.5 and 2.5 pg/ml Lysostaphin instead of Gramicidin. Lysostaphin is a lysozyme-like enzyme that is specific for the walls of S. aureus.

Data set [7] concerns clinically-isolated MRSA strain MRSA-5. Put plainly: Dumbbell Sig TFD growth assay on a clinically-isolated MRSA strain. In kind it is cell-based, Staphylococcus aureus. The note with it: 10 nM TFD, dumbbell configuration. How it is done:
A growth assay was performed as described in Example 5.1 using the Sig TFD in its dumbbell configuration and a clinically-isolated MRSA strain.

[8] abbreviates: statistical analysis of in vivo results.

Turning to `CN[C@H](CC(C)C)C(=O)N[C@H]1C(=O)N[C@@H](CC(N)=O)C(=O)N[C@H]2C(=O)N[C@H]3C(=O)N[C@H](C(=O)N[C@H](C(=O)O)c4cc(O)cc(O)c4-c4cc3ccc4O)[C@H](O)c3ccc(c(Cl)c3)Oc3cc2cc(c3O[C@@H]2O[C@H](CO)[C@@H](O)[C@H](O)[C@H]2O[C@H]2C[C@](C)(N)[C@H](O)[C@H](C)O2)Oc2ccc(cc2Cl)[C@H]1O` [Vancomycin, vancomycin, reference compound], the “Kruskal-Wallis all pairwise comparisons (Dwass-Steel-Chritchlow-Fligner) of kidney burden, versus Vehicle” value in data set [1] (setting [8]) stood at 0.0173.

For `C/C=C/C/C=C/CCC(=O)[C@H]1O[C@H]1C(N)=O` [cerulenin, reference compound], the “effect of cerulenin on growth of E. coli” value in data set [2] (10 μg/ml Cerulenin) is listed as “no noticeable effect on growth”. Also, the “cerulenin concentration at which it begins to inhibit cell growth” value in data set [2] (in the presence of the control TFD) came to 20 µg/mL.

With “KP_Sig: sigma 54 binding site from the K. pneumoniae glnA promoter, SEQ ID NO: 59, in a PCR_TFD (DNA TGGCACAGATTTCGCT; listed as DNA, chemistry not fully specified; listed as Klebsiella pneumoniae)”, the entries for the “effect on K. pneumoniae cell growth in vitro” value in data set [3] and in data set [3] (listed as KP_Sig TFD) were “prevented cell growth in vitro” and “kills K. pneumoniae in vitro”, respectively.

On to “LytM TFD: YycG/YycF binding site in LytM promoter, SEQ ID NO: 7 (DNA GCTATTTTGTAATGACAATGTAATGAGTTTAGTAAAAA; transcription factor decoy, made by PCR or oligonucleotide ligation, further chemistry not given here; listed as Staphylococcus aureus)”, for which the “growth of S. aureus under conditions of stress” value in data set [4] is listed as “capable of slowing the growth”.

B1: WalR_TFD: dumbbell TFD containing the binding site for the WalR protein as in the lytM promoter, SEQ ID NOs: 48 & 49 (nucleic acid, listed as Staphylococcus aureus)
chain 1: CTTGGTTTTTCCAAGTAATGAATGAGTTTAAAGCCCATGTAAAAGGGGTATCAGTAC
chain 2: CCCTCTTTTTGAGGGGTACTGATACCCCTTTTACATGGGCTTTAAACTCATTCATTA
modifications: dumbbell structure, further chemistry not given here
With B1, the “effect on growth of EMRSA-16 in vitro” value in data set [5] is listed as “prevented growth of EMRSA-16”. Also, the “growth after limited contact” value in data set [5] (1 nM, incubated 30 minutes then diluted into fresh media without TFD or Lysostaphin, followed 48 hours) is given as “unable to grow; also recorded: no growth was observed”. Also, the “total viable counts, reduction in number of living cells” value in data set [5] (after in vitro growth experiment) is on record as “reduced the number of living cells by five-fold orders of magnitude”. Besides, the “bacteriocidal activity against MRSA” value in data set [5] (in vitro and in vivo) is reported as “rapid bacteriocidal activity at nanomolar concentrations”. Further, in data set [5] (surviving bacteria sub-cultured and re-treated, repeated rounds), the “development of resistance to TFD-mediated killing” value is reported as “No resistance mechanism has been detected; also recorded: no evidence for the development of a resistance mechanism”. Moreover, in data set [6], the “inhibition of bacterial growth of EMRSA15” value (“inhibition … of EMRSA15” for short) is recorded as “prevents growth of EMRSA15”. For the same molecule, the “reduction in kidney burden of EMRSA-16” value in data set [1] (mice, systemic injection 1, 9 and 17 hours post infection, 1 nM TFD complex, compared to Scr_TFD control) is recorded as “as effective as vancomycin in killing EMRSA-16”. In data set [1] (setting [8]), the “Kruskal-Wallis all pairwise comparisons (Dwass-Steel-Chritchlow-Fligner) of kidney burden, versus Vancomycin” value turned out to be 0.2549 and the “Kruskal-Wallis all pairwise comparisons (Dwass-Steel-Chritchlow-Fligner) of kidney burden, versus Vehicle” value turned out to be 0.0062.

B2: Scr_TFD: TFD containing a scrambled version of the WalR binding site, SEQ ID NOs: 46 & 47 (nucleic acid, listed as Staphylococcus aureus)
chain 1: CTTGGTTTTTCCAAGGTAATATGACAAGATTGTAAATGACCTAGTTGAGAGATGCCA
chain 2: CCCTCTTTTTGAGGGTGGCATCTCTCAACTAGGTCATTTACAATCTTGTCATATTAC
modifications: dumbbell structure, further chemistry not given here
Regarding B2, the “effect on growth of EMRSA-16 in vitro” value in data set [5] is “no detectable effect on bacterial growth”. Also, the “inhibition … of EMRSA15” value in data set [6] is “no effect”. Further, in data set [1] (setting [8]), the “Kruskal-Wallis all pairwise comparisons (Dwass-Steel-Chritchlow-Fligner) of kidney burden, versus 1 nM WalR_TFD” value is recorded as 0.0043; the “Kruskal-Wallis all pairwise comparisons (Dwass-Steel-Chritchlow-Fligner) of kidney burden, versus Vancomycin” value turned out to be 0.0062; the “Kruskal-Wallis all pairwise comparisons (Dwass-Steel-Chritchlow-Fligner) of kidney burden, versus Vehicle” value is recorded as 0.7804.

B3: SA3 TFD: Sig dumbbell TFD from phosphorylated oligonucleotides SEQ ID NOs: 40 & 41 (nucleic acid, listed as Staphylococcus aureus)
chain 1: CTTGGTTTTTCCAAGGAAGATTAGAAATTATTTCGATGGGTATATAATA
chain 2: CCGTCTTTTTGACGGTATTATATACCCATCGAAATAATTTCTAATCTTC
modifications: 5' {P}, sugars by position and backbone not given here; further chemistry not fully specified
B3: the “inhibition of cell growth of clinically-isolated MRSA strain” value in data set [7] is “repress the growth”. Further, the “inhibition … of EMRSA15” value in data set [6] was “capable of inhibiting bacterial growth”.
